Measured values reported in the supplement of paper PMC11316812.
± gives the standard deviation of the averaged measurements.

Legend:
MCF7 = experiment: percentage of EdU-negative (G0-arrested) nuclei per well, 72 h; higher = more G0 arrest; conditions: reference: sequence is the full UniProt precursor, the tested protein was the secreted form or ectodomain
hTERT-HMEC = experiment: as above; conditions: reference: sequence is the full UniProt precursor, the tested protein was the secreted form or ectodomain
[1] = protein concentration 0.0225 µM
[2] = protein concentration 0.01925 µM
[3] = protein concentration 0.1925 µM
[4] = protein concentration 0.00875 µM
[5] = protein concentration 0.0875 µM
[6] = protein concentration 0.03125 µM
[7] = protein concentration 0.3125 µM
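Note: secreted proteins added to cultured cells, EdU pulse at the end, nuclei found by Hoechst imaging, EdU status from nuclear versus surrounding ring intensity ratio, PBS as neutral control.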

MRKMNTLLLVSLSFLYLKEVMGLKCNTCIYTEGWKCMAGRGTCIAKENELCSTTAYFRGDKHMYSTHMCKYKCREEESSKRGLLRVTLCCDRNFCNVF [P0C8F1]
percentage of EdU-negative (MCF7; [1]): 24.7 ± 1.3% | percentage of EdU-negative (MCF7; protein concentration 0.225 µM): 27.4 ± 0.56% | percentage of EdU-negative (hTERT-HMEC; [1]): 4.34 ± 0.4% | percentage of EdU-negative (hTERT-HMEC; protein concentration 0.225 µM): 7.87 ± 1.3%

MAKGFYISKSLGILGILLGVAAVCTIIALSVVYSQEKNKNANSSPVASTTPSASATTNPASATTLDQSKAWNRYRLPNTLKPDSYRVTLRPYLTPNDRGLYVFKGSSTVRFTCKEATDVIIIHSKKLNYTLSQGHRVVLRGVGGSQPPDIDKTELVEPTEYLVVHLKGSLVKDSQYEMDSEFEGELADDLAGFYRSEYMEGNVRKVVATTQMQAADARKSFPCFDEPAMKAEFNITLIHPKDLTALSNMLPKGPSTPLPEDPNWNVTEFHTTPKMSTYLLAFIVSEFDYVEKQASNGVLIRIWARPSAIAAGHGDYALNVTGPILNFFAGHYDTPYPLPKSDQIGLPDFNAGAMENWGLVTYRENSLLFDPLSSSSSNKERVVTVIAHELAHQWFGNLVTIEWWNDLWLNEGFASYVEYLGADYAEPTWNLKDLMVLNDVYRVMAVDALASSHPLSTPASEINTPAQISELFDAISYSKGASVLRMLSSFLSEDVFKQGLASYLHTFAYQNTIYLNLWDHLQEAVNNRSIQLPTTVRDIMNRWTLQMGFPVITVDTSTGTLSQEHFLLDPDSNVTRPSEFNYVWIVPITSIRDGRQQQDYWLIDVRAQNDLFSTSGNEWVLLNLNVTGYYRVNYDEENWRKIQTQLQRDHSAIPVINRAQIINDAFNLASAHKVPVTLALNNTLFLIEERQYMPWEAALSSLSYFKLMFDRSEVYGPMKNYLKKQVTPLFIHFRNNTNNWREIPENLMDQYSEVNAISTACSNGVPECEEMVSGLFKQWMENPNNNPIHPNLRSTVYCNAIAQGGEEEWDFAWEQFRNATLVNEADKLRAALACSKELWILNRYLSYTLNPDLIRKQDATSTIISITNNVIGQGLVWDFVQSNWKKLFNDYGGGSFSFSNLIQAVTRRFSTEYELQQLEQFKKDNEETGFGSGTRALEQALEKTKANIKWVKENKEVVLQWFTENSK
percentage of EdU-negative (MCF7; [2]): 21.5 ± 1.1% | percentage of EdU-negative (MCF7; [3]): 23.6 ± 1.2% | percentage of EdU-negative (hTERT-HMEC; [2]): 5.56 ± 1.4% | percentage of EdU-negative (hTERT-HMEC; [3]): 7.09 ± 0.27%

MVPAAGALLWVLLLNLGPRAAGAQGLTQTPTEMQRVSLRFGGPMTRSYRSTARTGLPRKTRIILEDENDAMADADRLAGPAAAELLAATVSTGFSRSSAINEEDGSSEEGVVINAGKDSTSRELPSATPNTAGSSSTRFIANSQEPEIRLTSSLPRSPGRSTEDLPGSQATLSQWSTPGSTPSRWPSPSPTAMPSPEDLRLVLMPWGPWHCHCKSGTMSRSRSGKLHGLSGRLRVGALSQLRTEHKPCTYQQCPCNRLREECPLDTSLCTDTNCASQSTTSTRTTTTPFPTIHLRSSPSLPPASPCPALAFWKRVRIGLEDIWNSLSSVFTEMQPIDRNQR [Q9BUN1]
percentage of EdU-negative (MCF7; [4]): 25.2 ± 0.46% | percentage of EdU-negative (MCF7; [5]): 26.9 ± 2.7% | percentage of EdU-negative (hTERT-HMEC; [4]): 4.62 ± 0.76% | percentage of EdU-negative (hTERT-HMEC; [5]): 10.6 ± 1.3%

MKALIAALLLITLQYSCAVSPTDCSAVEPEAEKALDLINKRRRDGYLFQLLRIADAHLDRVENTTVYYLVLDVQESDCSVLSRKYWNDCEPPDSRRPSEIVIGQCKVIATRHSHESQDLRVIDFNCTTSSVSSALANTKDSPVLIDFFEDTERYRKQANKALEKYKEENDDFASFRVDRIERVARVRGGEGTGYFVDFSVRNCPRHHFPRHPNVFGFCRADLFYDVEALDLESPKNLVINCEVFDPQEHENINGVPPHLGHPFHWGGHERSSTTKPPFKPHGSRDHHHPHKPHEHGPPPPPDERDHSHGPPLPQGPPPLLPMSCSSCQHATFGTNGAQRHSHNNNSSDLHPHKHHSHEQHPHGHHPHAHHPHEHDTHRQHPHGHHPHGHHPHGHHPHGHHPHGHHPHCHDFQDYGPCDPPPHNQGHCCHGHGPPPGHLRRRGPGKGPRPFHCRQIGSVYRLPPLRKGEVLPLPEANFPSFPLPHHKHPLKPDNQPFPQSVSESCPGKFKSGFPQVSMFFTHTFPK
percentage of EdU-negative (MCF7; [6]): 26 ± 1.3% | percentage of EdU-negative (MCF7; [7]): 25.5 ± 0.58% | percentage of EdU-negative (hTERT-HMEC; [6]): 4.57 ± 0.34% | percentage of EdU-negative (hTERT-HMEC; [7]): 4.52 ± 0.3%

MIFLLLMLSLELQLHQIAALFTVTVPKELYIIEHGSNVTLECNFDTGSHVNLGAITASLQKVENDTSPHRERATLLEEQLPLGKASFHIPQVQVRDEGQYQCIIIYGVAWDYKYLTLKVKASYRKINTHILKVPETDEVELTCQATGYPLAEVSWPNVSVPANTSHSRTPEGLYQVTSVLRLKPPPGRNFSCVFWNTHVRELTLASIDLQSQMEPRTHPTWLLHIFIPFCIIAFIFIATVIALRKQLCQKLYSSKDTTKRPVTTTKREVNSAI [Q9BQ51]
percentage of EdU-negative (MCF7; [1]): 23.9 ± 0.28% | percentage of EdU-negative (MCF7; protein concentration 0.225 µM): 24.6 ± 0.78% | percentage of EdU-negative (hTERT-HMEC; [1]): 4.79 ± 0.078% | percentage of EdU-negative (hTERT-HMEC; protein concentration 0.225 µM): 7.37 ± 0.34%

MKALLALPLLLLLSTPPCAPQVSGIRGDALERFCLQQPLDCDDIYAQGYQSDGVYLIYPSGPSVPVPVFCDMTTEGGKWTVFQKRFNGSVSFFRGWNDYKLGFGRADGEYWLGLQNMHLLTLKQKYELRVDLEDFENNTAYAKYADFSISPNAVSAEEDGYTLFVAGFEDGGAGDSLSYHSGQKFSTFDRDQDLFVQNCAALSSGAFWFRSCHFANLNGFYLGGSHLSYANGINWAQWKGFYYSLKRTEMKIRRA
percentage of EdU-negative (MCF7; [6]): 22.9 ± 0.61% | percentage of EdU-negative (MCF7; [7]): 26.2 ± 3.4% | percentage of EdU-negative (hTERT-HMEC; [6]): 4.11 ± 0.33% | percentage of EdU-negative (hTERT-HMEC; [7]): 4.91 ± 0.91%

MKENVASATVFTLLLFLNTCLLNGQLPPGKPEIFKCRSPNKETFTCWWRPGTDGGLPTNYSLTYHREGETLMHECPDYITGGPNSCHFGKQYTSMWRTYIMMVNATNQMGSSFSDELYVDVTYIVQPDPPLELAVEVKQPEDRKPYLWIKWSPPTLIDLKTGWFTLLYEIRLKPEKAAEWEIHFAGQQTEFKILSLHPGQKYLVQVRCKPDHGYWSAWSPATFIQIPSDFTMNDTTVWISVAVLSAVICLIIVWAVALKGYSMVTCIFPPVPGPKIKGFDAHLLEKGKSEELLSALGCQDFPPTSDYEDLLVEYLEVDDSEDQHLMSVHSKEHPSQGMKPTYLDPDTDSGRGSCDSPSLLSEKCEEPQANPSTFYDPEVIEKPENPETTHTWDPQCISMEGKIPYFHAGGSKCSTWPLPQPSQHNPRSSYHNITDVCELAVGPAGAPATLLNEAGKDALKSSQTIKSREEGKATQQREVESFHSETDQDTPWLLPQEKTPFGSAKPLDYVEIHKVNKDGALSLLPKQRENSGKPKKPGTPENNKEYAKVSGVMDNNILVLVPDPHAKNVACFEESAKEAPPSLEQNQAEKALANFTATSSKCRLQLGGLDYLDPACFTHSFH
percentage of EdU-negative (MCF7; [6]): 26.2 ± 3.5% | percentage of EdU-negative (MCF7; [7]): 26.4 ± 0.51% | percentage of EdU-negative (hTERT-HMEC; [6]): 4.8 ± 0.32% | percentage of EdU-negative (hTERT-HMEC; [7]): 5.37 ± 0.74%
